Here are results for 1 molecule from patent publication US20130280250A1 (published 2013).

For the test, the target named is T1, CD20 (human, UniProt P11836 1-297).
T1 construct: whole, on cells; also called CD20 on live cells; CD20 on Daudi and Raji cells
T1 sequence (looked up): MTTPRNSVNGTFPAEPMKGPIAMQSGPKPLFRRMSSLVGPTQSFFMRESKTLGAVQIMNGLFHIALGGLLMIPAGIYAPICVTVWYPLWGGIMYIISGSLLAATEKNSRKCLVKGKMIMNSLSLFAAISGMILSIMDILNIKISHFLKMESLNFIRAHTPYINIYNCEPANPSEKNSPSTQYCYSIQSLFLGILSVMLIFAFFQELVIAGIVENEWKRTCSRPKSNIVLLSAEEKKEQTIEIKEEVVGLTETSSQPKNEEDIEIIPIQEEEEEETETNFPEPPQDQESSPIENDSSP
In words: Scatchard analysis, radio-iodinated sample on Raji cells; apparent association constant.

B1: veltuzumab (hA20) (antibody, V domains shown)
VH: QVQLQQSGAEVKKPGSSVKVSCKASGYTFTSYNMHWVKQAPGQGLEWIGAIYPGMGDTSYNQKFKGKATLTADESTNTAYMELSSLRSEDTAFYYCARSTYYGGDWYFDVWGQGTTVTVSS
VL: DIQLTQSPSSLSASVGDRVTMTCRASSSVSYIHWFQQKPGKAPKPWIYATSNLASGVPVRFSGSGSGTDYTFTISSLQPEDIATYYCQQWTSNPPTFGGGTKLEIK
Consider B1, for which the Ka was found to be 1e+08 M⁻¹.
